Data taken from the Immune Epitope Database (IEDB).
Blank lines part the entries; values can stand above or below the sequence they belong to.

Columns and labels:
HLA-A*01:01 = test: IEDB peptide-MHC binding, purified MHC/competitive/radioactivity; filed as Kd, often an IC50 or EC50 that approximates it; ≥ and ≤ were set here for values at or beyond the usual limits of such assays
HLA-B*15:01 = test: as above
HLA-A*23:01 = test: as above
HLA-A*24:02 [1] = test: as above
HLA-A*29:02 = test: as above
HLA-A*30:02 = test: as above
HLA-A*26:01 = test: as above
HLA-A*24:02 [2] = test: IEDB peptide-MHC binding, purified MHC/competitive/fluorescence; ≥ and ≤ were set here for values at or beyond the usual limits of such assays
HLA-B*53:01 = test: IEDB peptide-MHC binding, purified MHC/competitive/radioactivity; filed as Kd, often an IC50 or EC50 that approximates it; ≥ and ≤ were set here for values at or beyond the usual limits of such assays
HLA-B*51:01 = test: as above
HLA-B*07:02 = test: as above
HLA-B*44:03 = test: as above
HLA-B*44:02 = test: as above
HLA-B*40:01 = test: as above
HLA-A*02:01 = test: IEDB peptide-MHC binding, purified MHC/competitive/fluorescence; ≥ and ≤ were set here for values at or beyond the usual limits of such assays; conditions: source organism: Vaccinia virus
[3] = source organism: Dengue virus 4 Philippines/H241/1956
[4] = source organism: Dengue virus 1 Brazil/97-11/1997
[5] = source organism: Mammarenavirus brazilense
[6] = source organism: SARS coronavirus Tor2
[7] = source organism: Vaccinia virus WR
[8] = source organism: Dengue virus 2 Jamaica/1409/1983
[9] = source organism: Sudan ebolavirus
[10] = source organism: Dengue virus 3 Martinique/1243/1999
[11] = source organism: Dengue virus 1 Singapore/S275/1990
[12] = source organism: Dengue virus 4 Dominica/814669/1981
[13] = source organism: Zaire ebolavirus
[14] = source organism: Dengue virus 2 Peru/IQT2913/1996
[15] = source organism: Vaccinia virus
[16] = source organism: Lymphocytic choriomeningitis virus (strain Armstrong)
[17] = source organism: Mammarenavirus whitewaterense

Sequence: LSIPHDLMEF
Kd (HLA-A*01:01; [3]): ≥ 36.2 µM
Kd (HLA-B*15:01; [3]): 0.00599 µM

Sequence: LWEGSPGKFW
Kd (HLA-A*23:01; [4]): 2.25 µM

Sequence: LWEKLCYLI
Kd (HLA-A*23:01; [5]): 0.265 µM
Kd (HLA-A*24:02 [1]; [5]): 2.88 µM
Kd (HLA-A*29:02; [5]): 4.44 µM

Sequence: LYNSTFFSTF
Kd (HLA-A*30:02; [6]): 1.16 µM
Kd (HLA-A*23:01; [6]): 0.000965 µM
Kd (HLA-A*24:02 [1]; [6]): 0.000635 µM
Kd (HLA-A*01:01; [6]): 10.3 µM
Kd (HLA-A*29:02; [6]): 0.622 µM
Kd (HLA-A*26:01; [6]): 0.834 µM

Sequence: MGLLCLTLF
Kd (HLA-A*23:01; [3]): 0.451 µM

IC50 (HLA-A*24:02 [2]; source organism: Mus musculus): 1.75 µM
Sequence: MILPMSRAF

Sequence: MLIEVILTA
Kd (HLA-B*15:01; [7]): 0.207 µM

Sequence: MMIDDFGTA
Kd (HLA-B*15:01; [7]): 0.0076 µM

Sequence: MPLVMAWRT
Kd (HLA-B*53:01; [3]): 0.0884 µM
Kd (HLA-B*51:01; [3]): 0.693 µM

Sequence: MPVTHSSAAQ
Kd (HLA-B*07:02; [8]): ≥ 20.1 µM
Kd (HLA-B*51:01; [8]): ≥ 69.6 µM

Sequence: NEVHTWTEQY
Kd (HLA-B*44:03; [4]): 0.137 µM

Sequence: NRKAIDFLL
IC50 (HLA-A*24:02 [2]; [9]): ≥ 72.4 µM

Sequence: PKAQREIFS
IC50 (HLA-A*24:02 [2]; source organism: Variola virus): 30.1 µM

Sequence: PPTAGVLARW
Kd (HLA-B*53:01; [10]): 4.93 µM

Sequence: PYLKATKQI
Kd (HLA-A*23:01; [5]): 0.131 µM
Kd (HLA-A*24:02 [1]; [5]): 0.564 µM
Kd (HLA-A*29:02; [5]): ≥ 78.9 µM

Sequence: QQMDPEHRQL
Kd (HLA-B*15:01; [10]): 0.118 µM

Sequence: QTWMSAEGAW
Kd (HLA-B*44:02; [10]): 11.9 µM

Sequence: QWFFDLPLPW
Kd (HLA-B*44:03; [10]): 2.64 µM
Kd (HLA-A*23:01; [10]): 0.0147 µM
Kd (HLA-A*24:02 [1]; [10]): 0.0748 µM

Sequence: RPGYFTQTA
Kd (HLA-B*07:02; [4]): 0.00478 µM

Sequence: RQMEGEGVL
Kd (HLA-B*15:01; [10]): 0.0188 µM
Kd (HLA-B*40:01; [10]): 0.0435 µM

Sequence: RSNAALGAIF
Kd (HLA-A*30:02; [8]): 3.42 µM
Kd (HLA-B*07:02; [8]): 0.184 µM
Kd (HLA-B*15:01; [8]): 0.0411 µM

Sequence: SEAVNDSRF
Kd (HLA-B*44:03; [3]): 0.0666 µM
Kd (HLA-B*44:02; [3]): 0.0179 µM

Sequence: SEMIIPKIYG
Kd (HLA-B*44:03; [11]): 0.0188 µM
Kd (HLA-B*44:02; [11]): 0.00953 µM

Sequence: SIGKMFESTY
Kd (HLA-A*30:02; [12]): 0.0374 µM
Kd (HLA-A*01:01; [12]): 17 µM

Sequence: SPMLYQLLE
IC50 (HLA-A*24:02 [2]; source organism: Vaccinia virus Copenhagen): 64.6 µM

Sequence: SPSVEVKLPD
Kd (HLA-B*07:02; [3]): 0.205 µM

Sequence: SYSLFDMSKF
Kd (HLA-A*30:02; [6]): 0.77 µM
Kd (HLA-A*23:01; [6]): 0.0497 µM
Kd (HLA-A*01:01; [6]): ≥ 25.1 µM
Kd (HLA-A*29:02; [6]): 0.677 µM
Kd (HLA-A*26:01; [6]): 6.12 µM

Sequence: SYYATSYLE
IC50 (HLA-A*24:02 [2]; [9]): 4.36 µM

Sequence: TEMGRLPTF
Kd (HLA-B*44:03; [8]): 0.024 µM
Kd (HLA-B*44:02; [8]): 0.01 µM

Sequence: TFSIPLGVI
IC50 (HLA-A*24:02 [2]; [13]): 0.0849 µM

Sequence: TKKNLTRKI
IC50 (HLA-A*24:02 [2]; [13]): ≥ 155 µM

Sequence: TMKHKKATY
Kd (HLA-A*30:02; [8]): 1.2 µM
Kd (HLA-B*15:01; [8]): 0.0834 µM

Sequence: TMRHKKATY
Kd (HLA-A*30:02; [14]): ≥ 76.9 µM
Kd (HLA-B*15:01; [14]): 0.442 µM

Sequence: TPEAKNSTFL
Kd (HLA-B*07:02; [3]): 1.37 µM

Sequence: TPEGEVGAIA
Kd (HLA-B*07:02; [4]): 14.7 µM

Sequence: TPKGTVMDII
Kd (HLA-B*07:02; source organism: Dengue virus 3 Singapore/8120/1995): 0.608 µM

Sequence: TPQASTTEAI
Kd (HLA-B*07:02; [10]): 0.0453 µM
Kd (HLA-B*51:01; [10]): ≥ 22.9 µM

Sequence: TPVHSWEDI
Kd (HLA-B*53:01; [3]): 2.22 µM
Kd (HLA-B*51:01; [3]): 16 µM

Sequence: TRAADEPPL
IC50 (HLA-A*02:01): ≥ 1400 µM
IC50 (HLA-A*24:02 [2]; [15]): ≥ 169 µM

Sequence: TWAKNIQTAI
Kd (HLA-A*24:02 [1]; [8]): 0.512 µM

Sequence: VEDEEFWKL
Kd (HLA-B*40:01; source organism: Dengue virus 3 Sri Lanka/1266/2000): 0.0181 µM

Sequence: VERAVLDDGI
Kd (HLA-B*40:01; [4]): 1.68 µM

Sequence: VGMGEAAAIF
Kd (HLA-A*24:02 [1]; [4]): 8.64 µM

Sequence: VIIHVIEHL
Kd (HLA-B*15:01; [7]): 1.19 µM

Sequence: VPFCSHHFHQ
Kd (HLA-B*07:02; [4]): ≥ 20.9 µM
Kd (HLA-B*51:01; [4]): ≥ 69.6 µM

Sequence: VYFESFVREF
Kd (HLA-A*23:01; [16]): 0.00889 µM
Kd (HLA-A*24:02 [1]; [16]): 0.0597 µM
Kd (HLA-A*29:02; [16]): 0.184 µM

Sequence: WEGSPGKFW
Kd (HLA-B*44:03; [4]): 0.0535 µM
Kd (HLA-B*44:02; [4]): 0.0244 µM

Sequence: WYGMEIRPI
Kd (HLA-A*24:02 [1]; [10]): 3.02 µM

Sequence: WYMWLGARFL
Kd (HLA-A*23:01; [8]): 0.0491 µM
Kd (HLA-A*24:02 [1]; [8]): 0.00633 µM

Sequence: YENLKYSVI
Kd (HLA-B*44:02; [4]): 0.0902 µM

Sequence: YFIKHVLAF
Kd (HLA-B*15:01; [7]): 0.00253 µM

Sequence: YLAGAGLLF
Kd (HLA-A*24:02 [1]; [8]): 0.0285 µM
Kd (HLA-B*15:01; [8]): 0.00186 µM
Kd (HLA-A*26:01; [8]): 2.13 µM

Sequence: YLLFGIKCI
IC50 (HLA-A*24:02 [2]; [15]): 7.15 µM

Sequence: YPALMPLY
Kd (HLA-B*07:02; source organism: Hepatitis B virus): ≥ 10 µM

Sequence: YSQIGAGVY
Kd (HLA-A*30:02; [8]): 0.00203 µM
Kd (HLA-A*01:01; [8]): 0.0634 µM
Kd (HLA-B*15:01; [8]): 0.0156 µM

Sequence: YYGLVTEQF
Kd (HLA-A*23:01; [17]): 0.00147 µM
Kd (HLA-A*24:02 [1]; [17]): 0.00327 µM
Kd (HLA-A*29:02; [17]): 0.0955 µM
